Target: aa defensin C (mature Aedes albopictus defensin C peptide) (Aedes albopictus)
Assay: ELISA

| Substance | absorbance |
| --- | --- |
| JEV ED III protein (ED III domain of the E protein, recombinant) (domain or fragment) | 1.17 |
| JEV E protein (recombinant) (natural protein) | 0.95 |
